Test results: article PMC3307390 (Journal of Immunology (Baltimore, Md. : 1950), 2010)
Peptide text beside a SMILES is read from it.

Key:
[1] = target: DQA1*0501/DQB1*0201 (Homo sapiens, UniProt P01909+P01920, A45G/A70V/D89A/E106A/E77G/E98D/H199R/L107V/N214S/P84L/P87L/T103K/T109R/T172A/T60S/V78E/V99I/Y58L/Y62S/Y69I/Y79F); experiment: biochemical
[2] = target: DQA1*0101/DQB1*0501 (Homo sapiens, UniProt P01909+P01920, A157S/A45G/A70V/C70R/D89V/E106S/E118A/E183D/E77G/F83G/G63E/H151Q/H199R/H252R/H253Q/I129T/I235V/I88M/INS77G/K197Q/L107V/L117V/L119Y/L178F/L71W/L74F/L85Q/L91A/L98M/M46L/N214S/P87R/Q116E/Q256R/Q57E/Q76K/R102G/R240Q/R75S/R78G/S102Y/S185I/S41F/S97I/T103A/T109R/T121G/T122I/T172A/T86R/V148I/V68A/V73E/Y34C/Y58G/Y62H); experiment: biochemical; format: binding
[3] = target: DQA1*0102/DQB1*0602 (Homo sapiens, UniProt P01909+P01920, A157G/A45G/C70R/E118A/E183D/E77G/F83G/G63E/H151Q/H199R/H252R/H253Q/I129T/I235V/I88M/INS77G/K197Q/L117V/L119F/L178F/L71W/L74F/L85Q/L91A/L98M/N214S/P87R/Q116E/Q76K/R102G/R240Q/R75S/R78G/S102Y/S185I/S41F/S97I/T121G/T122I/T172A/T86R/V229M/V68A/V73E/Y34C/Y41F/Y58L); experiment: biochemical; format: binding
[4] = target: HLA-DQ DQA1*0301/DQB1*0302 (human (endogenous in EBV-transformed cell line Preiss)); experiment: radioligand binding
[5] = target: HLA-DQ DQA1*0501/DQB1*0201 (human (endogenous in EBV-transformed cell line VAVY)); experiment: radioligand binding
[6] = target: HLA-DQ DQA1*0101/DQB1*0501 (human (endogenous in EBV-transformed cell line LG2)); experiment: radioligand binding

CC[C@H](C)[C@H](NC(=O)[C@H](CO)NC(=O)[C@H](CCC(=O)O)NC(=O)[C@H](C)NC(=O)[C@H](CCC(=O)O)NC(=O)[C@H](CCSC)NC(=O)[C@H](CCC(N)=O)NC(=O)[C@H](CCCCN)NC(=O)[C@@H](NC(=O)[C@H](CC(=O)O)NC(=O)[C@H](CCC(=O)O)NC(=O)[C@H](CCSC)NC(=O)[C@H](C)NC(=O)[C@H](CCC(N)=O)NC(=O)[C@H](CC(=O)O)NC(=O)[C@H](CCC(=O)O)NC(=O)[C@@H](N)[C@@H](C)O)[C@@H](C)CC)C(=O)N[C@@H](CO)C(=O)O
IC50 [1]: 0.439 µM

CC(C)C[C@H](NC(=O)[C@@H](NC(=O)[C@H](Cc1c[nH]cn1)NC(=O)[C@H](CO)NC(=O)[C@H](Cc1ccccc1)NC(=O)[C@H](CO)NC(=O)CNC(=O)CNC(=O)[C@H](CC(C)C)NC(=O)[C@H](Cc1ccc(O)cc1)NC(=O)[C@H](CCCNC(=N)N)NC(=O)[C@H](Cc1ccc(O)cc1)NC(=O)[C@H](CC(C)C)NC(=O)[C@@H]1CCCN1)C(C)C)C(=O)O
IC50 [2]: 2.46 µM

CC[C@H](C)[C@H](N)C(=O)N[C@@H](CC(N)=O)C(=O)N[C@@H](CCC(=O)O)C(=O)N1CCC[C@H]1C(=O)N[C@H](C(=O)N[C@@H](C)C(=O)N[C@@H](C)C(=O)N[C@@H](C)C(=O)N[C@H](C(=O)N[C@@H](C)C(=O)N[C@@H](Cc1ccc(O)cc1)C(=O)NCC(=O)N[C@@H](CC(C)C)C(=O)N[C@@H](CC(=O)O)C(=O)N[C@@H](CCCNC(=N)N)C(=O)O)[C@@H](C)CC)[C@@H](C)O (H-INEPTAAAIAYGLDR-OH)
IC50 [3]: 0.0063 µM

B1: H. sapiens B2-m peptide … (peptide)
peptide: TPTEKDEYCARVNH
IC50 [4]: 29.5 µM

B2: H. sapiens GAD65 peptide … (peptide)
peptide: FDRSTKVIDFHYPNE
IC50 [4]: 3.96 µM

B3: Homo sapiens Ii chain peptide … (peptide)
peptide: KPVSKMRMATPLLMQALP
IC50 [5]: 0.03 µM

B4: C. trachomatis enolase peptide … (peptide)
peptide: PLYRYLGGSFSHVL
IC50 [6]: 2.46 µM

B5: H. sapiens GAD65 peptide … (peptide)
peptide: RMMEYGTTMVSYQPL
IC50 [4]: 0.185 µM

B6: Bos taurus a-S1 casein peptide … (peptide)
peptide: TEDQAMEDIKQMEAESIS
IC50 [5]: 0.439 µM

B7: Gallus gallus ovomucoid peptide … (peptide)
peptide: DCLLCAYSIEFGTNISKEHD
IC50 [4]: 0.146 µM
